One may read the Kd as the concentration at which binding is half-saturated. In general, stoichiometry N refers to a count of units in the complex or per binding partner.

The record followed here is PMC3084279, “Critical Factors Governing the Difference in Antizyme-Binding Affinities between Human Ornithine Decarboxylase and Antizyme Inhibitor” (PLoS ONE, 2011).

For series [1], the target named is human ornithine decarboxylase N125K mutant (human) (UniProt P11926). The series can be described thus: AUC; sedimentation velocity, 42,000 rpm; ODC or AZI fixed at 0.3 mg/mL with AZ at 0.015, 0.03, 0.06 or 0.09 mg/mL; data globally fitted with SEDPHAT to the A+B<->AB hetero-association model.
Series [2] has as its target human antizyme inhibitor K125N mutant (human) (UniProt O14977). The description is as above.
Series [3] deals with human antizyme inhibitor K125N/K140M double mutant (human) (UniProt O14977). The description is as above.
human antizyme inhibitor K125N/K140M double mutant (human), sequence (O14977 whole entry K125N/K140M): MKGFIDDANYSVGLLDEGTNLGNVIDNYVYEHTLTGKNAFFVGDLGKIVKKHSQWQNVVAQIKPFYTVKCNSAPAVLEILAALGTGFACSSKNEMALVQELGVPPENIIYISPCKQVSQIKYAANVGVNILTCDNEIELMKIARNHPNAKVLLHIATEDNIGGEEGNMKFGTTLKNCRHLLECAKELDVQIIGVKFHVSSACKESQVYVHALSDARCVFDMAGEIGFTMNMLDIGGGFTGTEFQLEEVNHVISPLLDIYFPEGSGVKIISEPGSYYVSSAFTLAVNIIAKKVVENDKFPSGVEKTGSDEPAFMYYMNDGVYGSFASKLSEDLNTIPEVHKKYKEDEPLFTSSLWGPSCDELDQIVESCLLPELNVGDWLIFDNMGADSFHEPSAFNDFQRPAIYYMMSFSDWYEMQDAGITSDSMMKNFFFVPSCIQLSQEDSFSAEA
Series [4] addresses human antizyme inhibitor K140M mutant (human) (UniProt O14977). The series is described as above.
The target of series [5] is human ornithine decarboxylase, wild type (human) (UniProt P11926). The series is described as above.
Series [6] concerns the target human ornithine decarboxylase M140K mutant (human) (UniProt P11926). The series is described as above.
Series [7] concerns the target human ornithine decarboxylase N125K/M140K double mutant (human) (UniProt P11926). The series is described as above.
Series [8] has as its target human antizyme inhibitor, wild type (human) (UniProt O14977). The description is as above.
Series [9] concerns the target human ornithine decarboxylase N125K/M140K double mutant (human) (UniProt P11926).
Series [10] deals with human ornithine decarboxylase N125K mutant (human) (UniProt P11926).
For series [11], the target named is human ornithine decarboxylase N126V mutant (human) (UniProt P11926).
Series [12] addresses human ornithine decarboxylase F133C mutant (human) (UniProt P11926).
Series [13] has as its target human ornithine decarboxylase, wild type (human) (UniProt P11926).
In series [14] the target is human ornithine decarboxylase M140K mutant (human) (UniProt P11926).
Series [15] has as its target human ornithine decarboxylase N125K/M140K double mutant (human) (UniProt P11926). The source holds these as a separate data set.
Series [16] concerns the target human ornithine decarboxylase S135N mutant (human) (UniProt P11926).
For another series, the target named is human antizyme (human) (UniProt P54368).
Series [17] concerns the molecule itself. As to the kind of experiment: AUC; sedimentation velocity, 42,000 rpm; continuous size distribution (SEDFIT) of ODC or AZI without AZ.

human antizyme inhibitor, wild type (human), sequence (O14977 whole entry): as the sequence (O14977 whole entry K125N/K140M) above, with N125K, M140K counted along it
human antizyme inhibitor K125N mutant (human), sequence (O14977 whole entry K125N): as the sequence (O14977 whole entry K125N/K140M) above, with M140K counted along it
human antizyme inhibitor K140M mutant (human), sequence (O14977 whole entry K140M): as the sequence (O14977 whole entry K125N/K140M) above, with N125K counted along it

“human antizyme (from UniProt P54368 1-228) (natural protein)”: the Kd was 100 nM in series [1]; 160 nM in series [2]; 180 nM in series [3]; 110 nM in series [4]; 210 nM in series [5]; 140 nM in [6]. Besides, the Kd in series [7] and in series [8] was 20 nM throughout. In series [9], the residual enzyme activity of AZ-inhibited ODC N125K/M140K on rescue by high concentrations of AZI (AZ:ODC monomer ratio 4.0) is 20%. Also, the IC50,AZ: concentration of AZ required for 50% inhibition of ODC enzyme activity (ODC 20 µg/mL) in series [10] is 100 nM; in [11], 440 nM; in [12], 450 nM; in series [13], 250 nM; in series [14], 130 nM; in [15], 80 nM. The same molecule gave an IC50,AZ: concentration of AZ required for 50% inhibition of ODC enzyme activity (ODC 20 µg/mL) in series [16] of 490 nM.

As for “human antizyme inhibitor, wild type (from UniProt O14977 1-448) (natural protein)”, in the series with human antizyme (human), the residual enzyme activity of AZ-inhibited ODC WT (AZ:ODC monomer ratio 4.0) with increasing AZI concentrations is > 90%.

B1: human ornithine decarboxylase, wild type (enzyme, UniProt P11926 1-461, looked up)
chain: MNNFGNEEFDCHFLDEGFTAKDILDQKINEVSSSDDKDAFYVADLGDILKKHLRWLKALPRVTPFYAVKCNDSKAIVKTLAATGTGFDCASKTEIQLVQSLGVPPERIIYANPCKQVSQIKYAANNGVQMMTFDSEVELMKVARAHPKAKLVLRIATDDSKAVCRLSVKFGATLRTSRLLLERAKELNIDVVGVSFHVGSGCTDPETFVQAISDARCVFDMGAEVGFSMYLLDIGGGFPGSEDVKLKFEEITGVINPALDKYFPSDSGVRIIAEPGRYYVASAFTLAVNIIAKKIVLKEQTGSDDEDESSEQTFMYYVNDGVYGSFNCILYDHAHVKPLLQKRPKPDEKYYSSSIWGPTCDGLDRIVERCDLPEMHVGDWMLFENMGAYTVAAASTFNGFQRPTIYYVMSGPAWQLMQQFQNPDFPPEVEEQDASTLPVSCAWESGMKRHRAACASASINV
notes: Ornithine decarboxylase (EC 4.1.1.17), human; Homodimer without AZ (S about 6); dissociates to form a heterodimer with AZ; Gene sub-cloned into pQE30; also called ODC; source: E. coli JM109, purified (Ni-NTA Sepharose)
In the case of B1, the “stoichiometry N” value in series [17] came to 2.
